± gives the uncertainty stated by the source.
B1: Zinc finger MYM-type protein 3, residues 405 to 444; numbered along this chain, Q14202 (parent)
chain: DATRCSICQKTGEVLHEVSNGSVVHRLCSDSCFSKFRANK

Variants of: B1
Assay: abundance fitness (aPCA) (normalised: wild type 0, dead -1); higher = more abundant; growth selection in yeast, the domain comes from the species named
Conditions: Homo sapiens

Variant | abundance fitness
DATRCSICQKTGEVLHEVSNGSVVHRLCSDSCFSKFRAKK [N39K] | 0.167 ± 0.083
DATRCSICQKTGEVLHEVSNGSVVHRLCSDSCFSKFRAGK [N39G] | 0.017 ± 0.058
DATRCSICQKTGEVLHEVSNGSVVHRLCSDSCFSKFRAPK [N39P] | 0.043 ± 0.073
DATRCSICQKTGEVLHEVSNGSVVHRLCSDSCFSKFRACK [N39C] | -0.319 ± 0.11
DATRCSICQKTGEVLHEVSNGSVVHRLCSDSCFSKFRAWK [N39W] | -0.192 ± 0.076
DATRCSICQKTGEVLHEVSNGSVVHRLCSDSCFSKFRAAK [N39A] | 0.015 ± 0.062
DATRCSICQKTGEVLHEVSNGSVVHRLCSDSCFSKFRAMK [N39M] | 0.048 ± 0.07
DATRCSICQKTGEVLHEVSNGSVVHRLCSDSCFSKFRATK [N39T] | 0.112 ± 0.065
DATRCSICQKTGEVLHEVSNGSVVHRLCSDSCFSKFRALK [N39L] | 0.037 ± 0.065
DATRCSICQKTGEVLHEVSNGSVVHRLCSDSCFSKFRAHK [N39H] | -0.212 ± 0.087
DATRCSICQKTGEVLHEVSNGSVVHRLCSDSCFSKFRARK [N39R] | 0.081 ± 0.055
DATRCSICQKTGEVLHEVSNGSVVHRLCSDSCFSKFRAVK [N39V] | 0.058 ± 0.066
DATRCSICQKTGEVLHEVSNGSVVHRLCSDSCFSKFRAIK [N39I] | -0.022 ± 0.089
DATRCSICQKTGEVLHEVSNGSVVHRLCSDSCFSKFRAQK [N39Q] | 0.29 ± 0.078
DATRCSICQKTGEVLHEVSNGSVVHRLCSDSCFSKFRASK [N39S] | 0.003 ± 0.067
DATRCSICQKTGEVLHEVSNGSVVHRLCSDSCFSKFRADK [N39D] | -0.228 ± 0.13
DATRCSICQKTGEVLHEVSNGSVVHRLCSDSCFSKFRAEK [N39E] | 0.128 ± 0.076
DATRCSICQKTGEVLHEVSNGSVVHRLCSDSCFSKWRANK [F36W] | 0.147 ± 0.057
DATRCSICQKTGEVLHEVSNGSVVHRLCSDSCFSKVRANK [F36V] | -0.085 ± 0.066
DATRCSICQKTGEVLHEVSNGSVVHRLCSDSCFSKKRANK [F36K] | -0.426 ± 0.1
DATRCSICQKTGEVLHEVSNGSVVHRLCSDSCFSKNRANK [F36N] | -0.772 ± 0.14

Variant | abundance fitness
DATRCSICQKTGEVLHEVSNGSVVHRLCSDSCFSKTRANK [F36T] | -0.176 ± 0.07
DATRCSICQKTGEVLHEVSNGSVVHRLCSDSCFSKIRANK [F36I] | -0.061 ± 0.072
DATRCSICQKTGEVLHEVSNGSVVHRLCSDSCFSKYRANK [F36Y] | -0.22 ± 0.089
DATRCSICQKTGEVLHEVSNGSVVHRLCSDSCFSKSRANK [F36S] | -0.178 ± 0.064
DATRCSICQKTGEVLHEVSNGSVVHRLCSDSCFSKHRANK [F36H] | -0.053 ± 0.1
DATRCSICQKTGEVLHEVSNGSVVHRLCSDSCFSKRRANK [F36R] | -0.236 ± 0.054
DATRCSICQKTGEVLHEVSNGSVVHRLCSDSCFSKMRANK [F36M] | -0.296 ± 0.39
DATRCSICQKTGEVLHEVSNGSVVHRLCSDSCFSKQRANK [F36Q] | 0.002 ± 0.074
DATRCSICQKTGEVLHEVSNGSVVHRLCSDSCFSKFKANK [R37K] | 0.199 ± 0.067
DATRCSICQKTGEVLHEVSNGSVVHRLCSDSCFSKFCANK [R37C] | -0.093 ± 0.071
DATRCSICQKTGEVLHEVSNGSVVHRLCSDSCFSKFTANK [R37T] | 0.043 ± 0.064
DATRCSICQKTGEVLHEVSNGSVVHRLCSDSCFSKFVANK [R37V] | -0.23 ± 0.057
DATRCSICQKTGEVLHEVSNGSVVHRLCSDSCFSKFEANK [R37E] | 0.395 ± 0.061
DATRCSICQKTGEVLHEVSNGSVVHRLCSDSCFSKFNANK [R37N] | 0.135 ± 0.11
DATRCSICQKTGEVLHEVSNGSVVHRLCSDSCFSKFWANK [R37W] | -0.288 ± 0.07
DATRCSICQKTGEVLHEVSNGSVVHRLCSDSCFSKFIANK [R37I] | -0.512 ± 0.13
DATRCSICQKTGEVLHEVSNGSVVHRLCSDSCFSKFQANK [R37Q] | 0.106 ± 0.069
DATRCSICQKTGEVLHEVSNGSVVHRLCSDSCFSKFAANK [R37A] | -0.003 ± 0.056
DATRCSICQKTGEVLHEVSNGSVVHRLCSDSCFSKFYANK [R37Y] | -0.283 ± 0.15
DATRCSICQKTGEVLHEVSNGSVVHRLCSDSCFSKFDANK [R37D] | 0.143 ± 0.08
DATRCSICQKTGEVLHEVSNGSVVHRLCSDSCFSKFSANK [R37S] | 0.048 ± 0.057

Variant | abundance fitness
DATRCSICQKTGEVLHEVSNGSVVHRLCSDSCFSKFPANK [R37P] | -0.18 ± 0.079
DATRCSICQKTGEVLHEVSNGSVVHRLCSDSCFSKFLANK [R37L] | -0.304 ± 0.058
DATRCSICQKTGEVLHEVSNGSVVHRLCSDSCFSKFFANK [R37F] | -0.506 ± 0.088
DATRCSICQKTGEVLHEVSNGSVVHRLCSDSCFSKFHANK [R37H] | 0.137 ± 0.086
DATRCSICQKTGEVLHEVSNGSVVHRLCSDSCFSKFRRNK [A38R] | -0.199 ± 0.052
DATRCSICQKTGEVLHEVSNGSVVHRLCSDSCFSKFRLNK [A38L] | -0.265 ± 0.078
DATRCSICQKTGEVLHEVSNGSVVHRLCSDSCFSKFRSNK [A38S] | -0.2 ± 0.061
DATRCSICQKTGEVLHEVSNGSVVHRLCSDSCFSKFRFNK [A38F] | -0.259 ± 0.16
DATRCSICQKTGEVLHEVSNGSVVHRLCSDSCFSKFRVNK [A38V] | -0.233 ± 0.071
DATRCSICQKTGEVLHEVSNGSVVHRLCSDSCFSKFRMNK [A38M] | -0.033 ± 0.094
DATRCSICQKTGEVLHEVSNGSVVHRLCSDSCFSKFRWNK [A38W] | -0.353 ± 0.059
DATRCSICQKTGEVLHEVSNGSVVHRLCSDSCFSKFRHNK [A38H] | -0.524 ± 0.15
DATRCSICQKTGEVLHEVSNGSVVHRLCSDSCFSKFRGNK [A38G] | 0.011 ± 0.05
DATRCSICQKTGEVLHEVSNGSVVHRLCSDSCFSKFRQNK [A38Q] | -0.072 ± 0.064
DATRCSICQKTGEVLHEVSNGSVVHRLCSDSCFSKFRKNK [A38K] | -0.228 ± 0.086
DATRCSICQKTGEVLHEVSNGSVVHRLCSDSCFSKFRPNK [A38P] | -0.354 ± 0.068
DATRCSICQKTGEVLHEVSNGSVVHRLCSDSCFSKFRNNK [A38N] | -0.461 ± 0.23
DATRCSICQKTGEVLHEVSNGSVVHRLCSDSCFSKFRENK [A38E] | 0.015 ± 0.059
DATRCSICQKTGEVLHEVSNGSVVHRLCSDSCFSKFRINK [A38I] | -0.215 ± 0.079
DATRCSICQKTGEVLHEVSNGSVVHRLCSDSCFSKFRYNK [A38Y] | -0.338 ± 0.36
DATRCSICQKTGEVLHEVSNGSVVHRLCSDSCFSKFRDNK [A38D] | -0.139 ± 0.076
